Reference: patent publication US7268110B2, “Agents for preventing and treating thrombocytopenia” (Chugai Seiyaku Kabushiki Kaisha, priority 1996, dated 2007)

B1: human PTH(1-84) (protein, UniProt P01270 32-115, looked up)
Parathyroid hormone: SVSEIQLMHNLGKHLNSMERVEWLRKKLQDVHNFVALGAPLAPRDAGSQRPRKKEDNVLVESHEKSLGEADKADVNVLTKAKSQ
modifications: Parathyroid hormone

Legend:
platelet = assay: Effectiveness of PTH derivative, daily administration to mouse; format: in vivo; details: C57B1/6N mice, 200 μg/kg subcutaneously once a day for six days, blood 24 h after final administration
Protocol: Effectiveness of PTH Derivative
Ten-week old male C57B1/6N mice as purchased from Japan Charles River Co., Ltd. were used in the experiment.
Drug solutions to be administered were prepared basically from human PTH(1-84) and human PTH(1-34) by the same procedure as in Example 1 to give a drug concentration of 20 μg/mL.
Eighteen mice were divided into three groups, which were administered subcutaneously with the two drug solutions and a control (citrate buffer) for six days on a once-a-day basis in a volume of 10 mL/kg. […] The administration was initiated at 10 a.m.
After 24 h of the final administration, a blood sample was withdrawn from each mouse through the orbital vein. Peripheral corpuscle counts were obtained with an automatic corpuscle counter F-800 (TOA MEDICAL ELECTRONICS CO., LTD).

platelet counts [1] = assay: Test for single-dose administration to mouse (platelet increasing action); format: in vivo; details: C57B1/6N mice, 10 μg/kg single dose through the tail vein
Protocol: Test for Single-Dose Administration to Mouse
Nine-week old male C57B1/6N mice as purchased from Japan Charles River Co. Ltd. were used in the experiment.
Human PTH(1-84) was dissolved in a citrate buffer (pH 5; containing 0.05% of Tween 80) at final concentrations of 1, 0.2 and 0.04 ˜g/mL so as to prepare the drug solutions to be administered.
Each of the thus prepared drug solutions and a control (citrate buffer) was administered to 15 mice through the tail vein in a volume of 10 mL/kg. […] The administration was initiated at 10 a.m.
After 3, 6 and 9 hours of the administration, five mice were picked up at random from each group of animals and blood samples were withdrawn through the orbital vein. At 10 a.m. on the same day, separate blood samples were taken from untreated mice (four in number) to obtain the preadministration value. Peripheral corpuscle counts were obtained with an automatic corpuscle counter F-800 (TOA MEDICAL ELECTRONICS CO., LTD.).

platelet count = assay: Test for daily administration to mouse (platelet increasing action); format: in vivo; details: C57B1/6N mice; for platelet count: day 5
Protocol: Test for Daily Administration to Mouse
Nine-week old male C57B1/6N mice as purchased from Japan Charles River Co., Ltd. were used in the experiment.
Drug solutions to be administered were prepared basically by the same procedure as in Example 1 to give drug concentrations of 5, 20 and 80 μg/mL.
The mice under test were divided into four groups, which were administered subcutaneously with the three drug solutions and a control (citrate buffer) once a day in a volume of 10 mL/kg. […] The administration was initiated at 10 a.m.
On days 5, 7 and 9 after the start of administration, five or six mice were picked up at random from each group of animals and blood samples were withdrawn through the orbital vein. The sampling of blood was timed to occur 24 h of the final administration. Separate blood samples were taken from untreated mice (five in number) to obtain the value for normal mouse. Peripheral corpuscle counts were obtained with an automatic corpuscle counter F-800 (TOA MEDICAL ELECTRONICS CO., LTD.).

platelet counts [2] = assay: Test for daily administration to rabbit (platelet increasing action); format: in vivo; details: rabbits, 200 μg/kg subcutaneously daily
Protocol: Test for Daily Administration to Rabbit
Six 12-15 week old male Japanese albino rabbits JW/CSK were used in the experiment. The animals were individually kept in aluminum rabbit bracket cages Rb-1 (350^w×500^d×350^h mm) in a vavarium in a specific pathogen-free environment under the following conditions: temperature, 24±2° C.; humidity, 50±10%; illumination, light turned on at 5:00 and turned off at 19:00; ventilation, 15 changes/hr. Each animal was supplied with 120 g of a radiation-sterilized feed for rabbits RM (purchased from Funahashi Farm) per day. The animals were also allowed to drink to tap water ad libitum from an automatic water feeder.
Human PTH(1-84) was administered in a volume of 2 mL/vial at a concentration of 200 μg/mL. A solvent was also supplied in a volume of 2 mL/vial. Both the drug and the control were stored at −135° C. until use.
PTH (200 μg/kg) was administered to the rabbits subcutaneously at the back of their neck for 13 consecutive days. The solvent was similarly administered in the same volume as the dose of a rh-PTH solution calculated from their body weight.
Blood samples (0.5 mL) were withdrawn from the rabbits through the lateral auricular vein before the administration and on days 2, 6, 9 and 13 during the administration period. […]

[3] = tested on: BFU-E (precursor cells of erythrocytes); details: report by Meytes et al, J. Clin. Invest. 1981; cited from earlier work
[4] = tested on: CFU-GM (precursor cells of granulocytes and macrophages); details: report by Meytes et al, J. Clin. Invest. 1981; cited from earlier work

| Molecule | platelet increasing action (platelet) | platelet counts over the control (platelet counts [1]; 6 h after the administration) | platelet counts over the control (platelet counts [1]; 9 h after the administration) | platelet count (platelet count; 200 μg/kg subcutaneously once a day) | platelet count (platelet count; 800 μg/kg subcutaneously once a day) | platelet count vs the control (platelet count; all treated groups (50, 200 and 800 μg/kg subcutaneously once a day), day 7) | platelet count relative to the initial level (platelet counts [2]; day 13) | platelet count relative to the initial value (platelet counts [2]; increase from day 2 until day 6) | in vitro colony formation by BFU-E [3] | in vitro colony formation by CFU-GM [4] |
| --- | --- | --- | --- | --- | --- | --- | --- | --- | --- | --- |
| human PTH(1-34) (SVSEIQLMHNLGKHLNSMERVEWLRKKLQDVHNF; Parathyroid hormone; UniProt P01270 32-65, looked up, fragment) [PTH(134), partial peptide of PTH composed of 34 amino acids as counted from the N terminus; purchased from Peptide Institute, Inc, reference compound] | comparable platelet increasing action to PTH(1-84) |  |  |  |  |  |  |  |  |  |
| B1 | platelet increasing action | significant increase | significant increase | tendency to increase | tendency to increase | significantly higher | substantially returned to the initial level | two to four | interfered | interfered |
